From US20110086364A1 (TEKNOLOGIAN TUTKIMUSKESKUS VTT, published 2011) come the findings set out here.

For the experiment, the target named is T1, immune complex of anti-THC T3 Fab and THC (tetrahydrocannabinol).
T1 construct: the target is the Fab-hapten complex; The Fab was labeled with europium (LANCE Eu-W1024 ITC chelate) for TR-FRET and biotinylated for phage selection; also called T3+THC complex; T3+THC immune complex
Briefly: homogeneous TR-FRET in saliva: Eu-labeled T3 Fab, Alexa Fluor 647-labeled Fab 104, spiked THC. On the procedure:
40 μl saliva samples spiked with 0, 3.75, 7.5, 15, 30, 60 and 120 ng/ml of the following drugs: D9-THC, 11-OH-D9-THC, 11-nor-D9-THC-COOH, heroin and amphetamine were added to the wells. After short mixing, the time resolved fluorescence resonance energy transfer (TR-FRET) was measured by Victor V fluorometer (Perkin Elmer Wallac).

T1 sequence (VH, as listed by the source, chain 1 of 2): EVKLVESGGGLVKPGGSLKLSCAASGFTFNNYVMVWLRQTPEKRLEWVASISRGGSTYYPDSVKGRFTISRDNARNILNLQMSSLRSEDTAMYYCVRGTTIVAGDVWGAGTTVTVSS
T1 sequence (VL, as listed by the source, chain 2 of 2): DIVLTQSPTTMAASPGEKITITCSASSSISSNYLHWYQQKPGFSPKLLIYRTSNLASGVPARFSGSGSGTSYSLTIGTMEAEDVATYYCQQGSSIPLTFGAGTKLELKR

B1: anti-T3+THC immune complex Fab 104 (Fab, V domains shown)
VH: QVQLVQSGTEVKKPGATVKISCKFSGDNFIDYYMHWVKQAQGKGLEWLGLVDLGDGQTIYAEKFHGRGTITADSSRDTAYMELSSLRSEDTAVYYCAAAKAYRQGVMDVWGQGTLVTVSS
VL: NFMLTQPHSVSESPGKTVTISCTGSSGSIASNYVQWYQQRPGSAPTTVIYEDNQRPSGVPDRFSGSIDSSSNSASLTISGLKTEDEADYYCQSYDSSNQVFGGGTKLTVLG
notes: Labeled with Alexa Fluor 647 for the TR-FRET assay
For the molecule B1, the binding result is on record as “binds”.
